Test results published in the supplement of paper PMC9732359.
± gives the uncertainty stated by the source.

Assay: protein stability index of a GFP-peptide fusion (yeast GPS) (PSI 1-4); higher = more stable; sorted into four equal gates, so the index is relative within each strain
Method in brief: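 Yeast carrying a pooled library were grown to mid-log phase in leucine-free medium. Each library plasmid expresses Cherry and has a tiled 17-residue yeast protein peptide fused downstream of GFP. Cells were sorted into four equal gates by GFP/Cherry ratio, and plasmids from each gate were PCR-amplified, Illumina-sequenced and assigned to strains by barcode. Summing, across gates, the read frequency times the gate number gave each peptide's protein stability index.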

Sequence	protein stability index (doa10∆)	protein stability index (pdr5∆)	protein stability index (san1∆)	protein stability index (ubr1∆)
ANVDQISFLEPINLKFL [YMR129W/POM152]	2.75 ± 0.057	2.89 ± 0.077	2.92 ± 0.054	2.91 ± 0.048
LESTKAETDYVDPKRLA [DSN1]	2.96 ± 0.063	3.19 ± 0.067	3.04 ± 0.053	3.26 ± 0.075
GTNNISQHGQGNNPSWV [YDL088C/ASM4]	3.01 ± 0.078	3.39 ± 0.059	3.3 ± 0.058	3.12 ± 0.054
YAKDILQKEFLPHITQL [RPB2]	1.76 ± 0.047	1.8 ± 0.04	1.4 ± 0.065	1.38 ± 0.031
CVDDNSKISFIDEDKLY [SSN2]	3.59 ± 0.25	2.98 ± 0.1		2.82 ± 0.29
QLHFSLLDEEAEQSFDQ [RPO21]	2.51 ± 0.11	2.77 ± 0.14	3.29 ± 0.1	2.64 ± 0.22
LTEQIRELREVIELPLK [RPT4]	2.69 ± 0.14	3.73 ± 0.27	3.12 ± 0.17	3.06 ± 0.087
LFPVAAQDSLTVTIASS [RPB8]	1.22 ± 0.053	1.48 ± 0.049	1.32 ± 0.16	1.61 ± 0.041
VYFGDENKVMLPRCSKE [RRI2]	3.24 ± 0.091	3.37 ± 0.089	3.11 ± 0.074	3.13 ± 0.063
NNSNTVASSTNFTSPTA [SWI1]	2.82 ± 0.039	2.67 ± 0.039	2.86 ± 0.041	2.71 ± 0.033
ELLDFLTSNLSNYSRTM [YJL039C/NUP192]	2.35 ± 0.076	2.54 ± 0.079	2.82 ± 0.054	2.59 ± 0.085
VRKELRGRAVVLMGKNT [RPP0]	1.71 ± 0.067	1.83 ± 0.094	2.12 ± 0.15	2.08 ± 0.057
TTALLKDEEIEKLLQQD [MED8]	3.29 ± 0.13	3.13 ± 0.13	3.05 ± 0.23	3.59 ± 0.14
QISLNRLIDSMKQYSYL [RRI1]	2.43 ± 0.23	2.29 ± 0.16	2.48 ± 0.17	3.11 ± 0.12
FDINRSHKEGRRVPKEL [SEC65]		2.52 ± 0.24		
QNSYADKVTSQAVNNLI [RPP1]	1.82 ± 0.047	1.93 ± 0.09	1.68 ± 0.099	2.11 ± 0.068
ISLHENKLSGILADEMG [ISW2]	2.81 ± 0.085	2.16 ± 0.069	2.71 ± 0.084	2.44 ± 0.1
SPNFKNYLKYLEYWCNP [SOH1]	2.32 ± 0.055	2.34 ± 0.056	1.88 ± 0.053	2.71 ± 0.06
MTPLLVNCLELLINTNF [PCI8]	1.6 ± 0.037	1.6 ± 0.042	1.48 ± 0.078	1.42 ± 0.057
KSIMDGIHDGHIKKLLH [FAS1]	1.54 ± 0.035	1.48 ± 0.037	1.37 ± 0.075	1.38 ± 0.024
IIDAKTRNEQTTIQTEK [MCD1]	3.19 ± 0.093	3.23 ± 0.082	2.91 ± 0.17	3.01 ± 0.06
AAGANVDNVWADVYAKA [RPP1B]	3.2 ± 0.096	3.16 ± 0.14	2.77 ± 0.14	2.96 ± 0.12
KLWAEIIVKILYYRPHI [GRR1]	1.4 ± 0.064	2.02 ± 0.071	1.19 ± 0.15	1.46 ± 0.073
PPGLDALVKPETQFKLS [CDC53]	2.82 ± 0.058	2.84 ± 0.055	3.07 ± 0.036	2.99 ± 0.046
DRKIEFPPPSVAARAEI [RPT6]	2.02 ± 0.094	2.36 ± 0.11	1.83 ± 0.096	1.39 ± 0.052
DIPELSFFHQSNMQKSL [RPN3]	2.56 ± 0.065	2.13 ± 0.067	2.8 ± 0.068	2.87 ± 0.045
MAKDNLTNLLSQLNIQL [SRP72]	2.99 ± 0.077	3.13 ± 0.084	3.15 ± 0.074	2.96 ± 0.061

Sequence	protein stability index (doa10∆)	protein stability index (pdr5∆)	protein stability index (san1∆)	protein stability index (ubr1∆)
AIQLDYSTANEYIIAAI [RPN3]	2.24 ± 0.058	2.09 ± 0.073	2.32 ± 0.094	2.47 ± 0.056
MAHRVKVIPYSTFRLNL [RPO21]	1.87 ± 0.07	1.82 ± 0.071	1.2 ± 0.12	2.29 ± 0.095
FRFDSIQRETLLPTNNG [GRR1]	2.59 ± 0.047	2.67 ± 0.053	2.69 ± 0.04	2.92 ± 0.033
VLCTRLRLSNFFTIDHF [SIR2]	2.19 ± 0.064	1.5 ± 0.057	1.5 ± 0.097	1.28 ± 0.033
TIVNDSNYDWLFQLLNA [RPN9]	2.34 ± 0.074	2.58 ± 0.077	2.34 ± 0.078	2.61 ± 0.048
RRLHDENLMVQRTCLMT [YCS4]	2.43 ± 0.064	2.44 ± 0.057	2.45 ± 0.058	2.24 ± 0.047
GKEFEARNLIEDEDDGE [RPC53]	3.46 ± 0.16	3.58 ± 0.14	3.41 ± 0.1	2.94 ± 0.14
GILRRKSESDELQMRSF [RRP4]	3.06 ± 0.11	3.04 ± 0.17	3.18 ± 0.11	3.16 ± 0.084
MSNKVKTKAMVPPINCI [SME1]	2.42 ± 0.057	2.35 ± 0.053	2.64 ± 0.05	2.57 ± 0.035
FEKNTILQQRSKINSTE [MED4]	2.79 ± 0.073	3.07 ± 0.084	2.81 ± 0.07	3.15 ± 0.086
LLAQLNGTVNNNSALSN [RPT3]	3.23 ± 0.25	2.25 ± 0.14	1.88 ± 0.097	2.34 ± 0.075
PTLVRSVISGNLSLYEA [CSN12]	2.92 ± 0.085	3.05 ± 0.092	3.06 ± 0.068	2.91 ± 0.054
IRAIRKVISEILTKEVQ [RPS1A]	1.714 ± 0.013	1.89 ± 0.012	1.83 ± 0.021	1.966 ± 0.011
YLLENNQVGTDELILPL [YDL116W/NUP84]	3.18 ± 0.081	3.06 ± 0.11	3.07 ± 0.069	2.89 ± 0.057
TSLITAVYGPRSIRGSF [MTR3]	2.72 ± 0.073	2.72 ± 0.086	2.55 ± 0.074	2.28 ± 0.058
NLSEARLVIKEALVERR [RPB4]	3.33 ± 0.28	2.75 ± 0.13	2.83 ± 0.21	3.3 ± 0.13
RVHRLLRRGNYAQRIGS [HTA1]	2.65 ± 0.23	2.77 ± 0.19	2.64 ± 0.094	2.74 ± 0.24
FGPKKENRKKDESDSEN [YLR335W/NUP2]	3.04 ± 0.14	3.19 ± 0.086	2.62 ± 0.079	3.42 ± 0.091
KLAAIVEIIDQKKVLID [RPL14A]	2.8 ± 0.18	2.69 ± 0.088	2.91 ± 0.072	2.73 ± 0.062
GEEDAVDLLLEIESIDK [RPN1]	3.25 ± 0.11	3.08 ± 0.14	3.25 ± 0.08	3.33 ± 0.057
TKENGDFTLPEDFAPLL [PRP8]		2.78 ± 0.18		3.2 ± 0.1
EEAAEESDDDMGFGLFD [RPP1B]	3.14 ± 0.059	2.87 ± 0.073	3.371 ± 0.029	3.23 ± 0.037
GVVRYVMESGAKGCEVV [RPS3]	1.29 ± 0.097	1.67 ± 0.1		1.34 ± 0.086
WTSTQRHHWQYTKASLA [SSN8]	1.26 ± 0.093	1.38 ± 0.095	1.42 ± 0.16	1.46 ± 0.073
YYKNFHNSVKRYQIMLP [SNM1]	1.12 ± 0.042	1.36 ± 0.059	1.33 ± 0.11	1.47 ± 0.05
NTCTISTSKFESQYPIV [SWP82]	2.57 ± 0.089	2.67 ± 0.11	2.97 ± 0.074	2.81 ± 0.071
DFELAVGKVMNKNQETA [RPT6]	2.37 ± 0.21			
